PMC11480844

B1: H2-Kb / B16 (parent)
chain 1: QQQVRQSPQSLTVWEGGTTVLTCSYEDSTFNYFPWYQQFPGEGPALLISILSVSDKKEDGRFTTFFNKREKKLSLHIIDSQPGDSATYFCAARGSALGRLHFGAGTQLIVIP
chain 2: EAAVTQSPRSKVAVTGGKVTLSCHQTNNHDYMYWYRQDTGHGLRLIHYSYVADSTEKGDIPDGYKASRPSQENFSLILELASLSQTAVYFCASSDGTNQAPLFGEGTRLSVL
chain 3: not shown
chain 4: IQKTPQIQVYSRHPPENGKPNILNCYVTQFHPPHIEIQMLKNGKKIPKVEMSDMSFSKDWSFYILAHTEFTPTETDTYACRVKHDSMAEPKTVYWDRDM
chain 5: SIINFEKL
B2: H2-Kb / H6 (parent)
chain 1: AQKVTQTQTSISVMEKTTVTMDCVYETQDSSYFLFWYKQTASGEIVFLIRQDSYKKENATVGHYSLNFQKPKSSIGLIITATQIEDSAVYFCAMRDYNQGKLIFGQGTKLSIKP
chain 2: EAAVTQSPRSKVAVTGGKVTLSCHQTNNHDYMYWYRQDTGHGLRLIHYSYVADSTEKGDIPDGYKASRPSQENFSLILELASLSQTAVYFCASSGTAANSDYTFGSGTRLLVI
chain 3: not shown
chain 4: B1 chain 4
chain 5: SIINFEKL
B3: H2-Kb / G2 (parent)
chain 1: GEQVEQRPPHLSVREGDSAVIICTYTDPNSYYFFWYKQEPGAGLQLLMKVFSSTEINEGQGFTVLLNKKDKQLSLNLTAAHPGDSAVYFCAVRTNQGGRALIFGTGTTVSVSP
chain 2: EAAVTQSPRSKVAVTGGKVTLSCHQTNNHDYMYWYRQDTGHGLRLIHYSYVADSTEKGDIPDGYKASRPSQENFSLILELASLSQTAVYFCASSGTDTEVFFGKGTRLTVV
chain 3: not shown
chain 4: B1 chain 4
chain 5: SIINFEKL

Variants of: B1
Experiment: % of reporter cells activated (NFAT-GFP), raw
Details: with B16; scale: % of reporter cells activated
Note: test concentration or dose not given here.

Ratio to parent: each site, then its substitutions
chain 5 N4: D 1.19; S 1.09; M 1.21; L 1.48; K 1.37; H 1.26; E 1.25; W 1.13; Y 0.87; I 1.25; G 1.35; C 1.2; V 1.14; A 1.39; Q 0.992; F 0.909; R 0.969; P 1.25; T 1.04
chain 5 S1: A 1.54; Q 1.28; C 1.57; L 1.11; M 1.08; T 1.36; V 1.16; K 1.38; W 0.941; Y 1.56; D 1.29; N 1.09; F 1.35; P 1.3; R 0.846; G 1.43; E 1.26; I 1.35; H 1.37
chain 5 I2: N 1.26; W 1.35; R 0.921; Q 1.21; L 1.51; T 1.34; Y 1.3; S 1.34; V 1.33; M 1.11; K 1.52; P 1.48
chain 5 K7: G 1.06; R 0.488; V 0.823; A 1.29; C 1.33; H 1.21; E 1.16; N 0.823; F 1.01; T 0.665; D 0.886; W 0.496; L 1.03; P 1.02; M 0.921; S 0.657; Q 1.39; I 1.41; Y 0.996
chain 5 I3: W 1.08; S 1.5; D 1.13; A 1.55; F 1.11; K 1.44; E 1.3; G 1.22; L 1.28; N 1.37; C 1.52; V 1.07; R 0.807; Y 1.33; T 1.24; P 2.05; H 1.38; M 1.4; Q 1.5
chain 5 L8: S 0.65; I 0.602; F 0.579; M 0.799; K 0.827; C 0.996; V 0.697; A 0.921; T 0.787; E 0.547; Q 1.04; P 1.36; Y 1.24; G 1.26; N 0.744; H 1.1; R 1.28; D 0.823; W 0.689

Variants of: B2
Experiment: % of reporter cells activated (NFAT-GFP), raw
Details: with H6; scale: % of reporter cells activated

Ratio to parent, by site and new letter:
chain 5 K7: C 0.125; I 0.231; A 0.097; V 0.261; N 0.0979; M 0.188; L 0.112; E 0.122; Q 0.102; W 0.129; H 0.809; R 1.36; T 0.111; D 0.0822; G 0.072; S 0.0877; F 0.111; Y 0.162; P 0.11
chain 5 I2: S 1.56; P 0.351; M 0.624; K 0.24; N 0.541; Y 0.408; Q 0.385; A 1.5; D 1.01; R 0.281; V 1.54; G 0.956; H 0.243; C 1.27; E 1.09; T 1.49; L 1.29; W 0.585; F 0.733
chain 5 S1: Y 0.424; L 0.355; W 0.292; F 0.276; G 0.517; I 0.338; R 0.333; V 0.294; H 0.446; T 0.524; Q 0.602; K 0.384; N 0.416; M 0.536; C 0.188; E 0.709; P 0.141; D 1.53; A 0.556
chain 5 L8: G 0.36; V 0.537; N 0.433; H 0.825; C 0.28; M 0.538; K 0.13; F 0.32; P 0.26; S 0.129; Q 0.131; A 0.199; Y 0.729; R 0.406; I 0.888; D 0.209; W 0.248; E 0.214; T 0.521
chain 5 F5: G 0.381; A 0.809; W 0.795; T 0.694; Q 0.495; S 0.6; M 1.14; N 0.446; P 0.546; D 0.192; R 0.248; Y 0.516; K 0.173; E 0.163; V 0.796; H 0.777; L 0.863; I 0.711; C 1.01
chain 5 E6: R 0.097; N 0.102; H 0.0877; S 0.107; A 0.0933; Y 0.0997; V 0.0536; P 0.0822; M 0.0896; I 0.0822; L 0.0813; Q 0.0813; F 0.11; T 0.0942; G 0.168; W 0.084; C 0.0748; K 0.131; D 0.365
chain 5 N4: I 0.116; T 0.143; Y 0.358; G 0.445; C 0.206; Q 0.117; K 0.126; A 0.202; S 0.295; D 0.132; F 0.335; V 0.0988; P 0.519; L 0.146; W 0.672; H 0.91; R 0.102; E 0.2; M 0.111
chain 5 I3: C 1.57; Q 1.11; V 1.57; N 1.09; H 0.61; L 1.02; M 1.62; T 0.955; G 0.962; Y 0.236; K 0.236; R 0.295; A 1.33; W 0.281; F 0.342; S 0.872; E 1.19; P 1.18; D 0.149

Variants of: B3
Experiment: % of reporter cells activated (NFAT-GFP), raw
Details: with G2; scale: % of reporter cells activated

Ratio to parent, by site and new letter:
chain 5 S1: P 1.42; L 1.73; E 1.54; F 1.63; C 1.31; T 1.07; Y 1.26; W 1.34; D 1.62; G 1.47
chain 5 E6: V 1.7; H 1.36; Q 1.41
chain 5 N4: D 1.4; S 1.5; P 1.34; C 1.02; M 1.09; W 2.17; Q 1.18; E 0.928; A 1.13; T 0.904
chain 5 I2: Q 1.13; K 1.16; Y 1.54; P 1.65; H 1.31; D 1.58; W 1.18; A 1.66
chain 5 K7: W 1.34; Y 1.22; M 1.34; V 1.13; S 0.824; T 1.27; C 1.88; R 0.664
chain 5 F5: K 1.36; S 0.88; P 1.42; M 1.31; W 1.15; H 1.51; A 1.38; E 1.34; G 1.23; D 1.77; C 1.4; N 0.984; L 1.46; I 1.06
chain 5 L8: A 1.06; Y 0.744; E 0.696; P 1.24; W 0.768; V 1.32; I 1.04; K 1.4; Q 1.05; H 1.78
chain 5 I3: R 0.8; H 1.18; G 1.39; T 0.992; A 1.42; Y 0.904; W 1.3; F 1.19; S 0.936; M 1.88; P 1.44; K 1.5
